This note sets out measurements from US20030219740.

Data set [1] addresses carboxyl terminal APC fragment (UniProt P25054).

carboxyl terminal APC fragment, sequence (P25054 2168-2843): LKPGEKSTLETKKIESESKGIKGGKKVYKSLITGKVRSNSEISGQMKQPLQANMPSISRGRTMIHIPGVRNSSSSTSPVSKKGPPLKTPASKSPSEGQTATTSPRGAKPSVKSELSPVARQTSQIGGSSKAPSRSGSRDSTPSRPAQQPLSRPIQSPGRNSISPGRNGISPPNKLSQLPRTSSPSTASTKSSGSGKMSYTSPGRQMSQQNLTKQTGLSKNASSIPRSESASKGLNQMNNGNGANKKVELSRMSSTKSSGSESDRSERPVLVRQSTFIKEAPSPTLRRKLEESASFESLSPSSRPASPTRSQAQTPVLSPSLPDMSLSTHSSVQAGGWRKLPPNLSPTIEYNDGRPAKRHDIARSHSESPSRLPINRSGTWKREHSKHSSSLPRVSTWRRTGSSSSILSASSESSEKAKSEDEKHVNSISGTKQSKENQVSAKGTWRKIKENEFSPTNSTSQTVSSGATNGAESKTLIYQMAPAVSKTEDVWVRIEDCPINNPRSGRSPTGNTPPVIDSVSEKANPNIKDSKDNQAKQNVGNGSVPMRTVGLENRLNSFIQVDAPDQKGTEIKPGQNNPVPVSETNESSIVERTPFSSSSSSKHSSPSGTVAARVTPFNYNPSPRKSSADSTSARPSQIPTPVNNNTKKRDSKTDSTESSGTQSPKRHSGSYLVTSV

In the case of MNSRPRRRDIDRLEHLHLTEFGLKLGQKIFLLNKRDFILFLSLF (enzyme) [CATX-2 protein], the “phosphorylation in vitro (γ-32P)” value in data set [1] was “CATX-2 protein could phosphorylate histone 5 µg, poly-threonine 5 µg, and COOH-APC fragment (1-5 µg)”; with poly-threonine, “CATX-2 protein could phosphorylate histone 5 µg, poly-threonine 5 µg”; in the data set on histone it was “CATX-2 protein could phosphorylate histone 5 µg”.
